The values below come from patent US20030096272A1, “Genes regulated by peroxisome proliferator-activated receptor gamma agonist” (Incyte Genomics, Inc., priority 2001, published 2003).

For series [1], the system named is adipocytes obtained from normal donors. As to the kind of experiment: microarray differential expression in PPARγ agonist-treated adipocytes, normal donor. It counts as cell-based, human. From the text: (§1) Incyte clones represent template sequences derived from the LIFESEQ GOLD assembled human sequence database (Incyte Genomics). In cases where more than one clone was available for a particular template, the 5′-most clone in the template was used on the microarray. The HUMAN GENOME GEM series 1-5 microarrays (Incyte Genomics) contain 45,320 array elements which represent 22,632 annotated clusters and 22,688 unannotated clusters. For the UNIGEM series microarrays (Incyte Genomics), Incyte clones were mapped to non-redundant Unigene clusters (Unigene database (build 46), NCBI; Shuler (1997) J Mol Med 75:694-698), and the 5′ clone with the strongest BLAST alignment (at least 90% identity and 100 bp overlap) was chosen, verified, and used in the construction of the microarray. The UNIGEM V 2.0 microarray (Incyte Genomics) contains 8,502 array elements which represent 8,372 annotated genes and 130 unannotated clusters.
(§2) To construct microarrays, cDNAs were amplified from bacterial cells using primers complementary to vector sequences flanking the cDNA insert. Thirty cycles of PCR increased the initial quantity of cDNAs from 1-2 ng to a final quantity greater than 5 μg. Amplified cDNAs were then purified using SEPHACRYL-400 columns (APB). Purified cDNAs were immobilized on polymer-coated glass slides. Glass microscope slides (Coming, Corning N.Y.) were cleaned by ultrasound in 0.1% SDS and acetone, with extensive distilled water washes between and after treatments. Glass slides were etched in 4% hydrofluoric acid (VWR Scientific Products, West Chester Pa.), washed thoroughly in distilled water, and coated with 0.05% aminopropyl silane (Sigma-Aldrich) in 95% ethanol. Coated slides were cured in a 110° C. oven. cDNAs were applied to the coated glass substrate using a procedure described in U.S. Pat. No. 5,807,522. One microliter of the cDNA at an average concentration of 100 ng/ul was loaded into the open capillary printing element by a high-speed robotic apparatus which then deposited about 5 nl of cDNA per slide.
(§3) Microarrays were UV-crosslinked using a STRATALINKER UV-crosslinker (Stratagene), and then washed at room temperature once in 0.2% SDS and three times in distilled water. Non-specific binding sites were blocked by incubation of microarrays in 0.2% casein in phosphate buffered saline (Tropix, Bedford Mass.) for 30 minutes at 60° C. followed by washes in 0.2% SDS and distilled water as before.
(§4) Primary cultures of preadipocytes were obtained from subcutaneous fat obtained from a person with a body mass index (BMI; kg/m^2) of 23.59 and from a person with a BMI of 32.47. Individuals with a BMI between 18.5 and 24.9 are classified as ‘healthy’ or normal, whereas individuals with a BMI between 30.0 and 39.9 are classified as obese. Preadipocytes were cultured in F-10 medium with 10% fetal bovine serum. Confluent cells were either treated with 1 μM rosiglitazone (BRL49653), 0.2 mM IBMX, and 100 nM human insulin for 3 days; or remained untreated. Thereafter, the cells were cultured in F-10 medium with 3% fetal bovine serum and 100 nM human insulin. Differentiated adipocytes were compared to untreated preadipocytes maintained in culture in the absence of inducing agents. Between 80% and 90% of the preadipocytes observed under a phase contrast microscope had differentiated to adipocytes by day 15. Cells were harvested at 1, 2, 8, and 15 days post treatment.
(§5) Cells were harvested and lysed in 1 ml of TRIZOL reagent (5×10^6 cells/ml; Invitrogen). […]

Series [2] has as its system adipocytes obtained from obese donors. The series can be described thus: microarray differential expression in PPARγ agonist-treated adipocytes, obese donor. It counts as cell-based, human.
Excerpt: as §1, §2, §3, §4, §5

For the molecule “SEQ ID NO:29: cDNA, template 235636.1, represented by clone 3075694; integrin binding protein Del-1”, the “regulation in response to PPARγ agonist (in words)” value in series [1] (adipocytes from normal donors) was “unchanged”; in series [2] (adipocytes from obese donors), “downregulated”.

B1: 5425777 (nucleic acid, listed as Homo sapiens)
DNA: CCCAGACACAAGTCTTCACTCCTTCCTGCGAGCCCTGAGGAAGCCTTCTTTCCCCAGACATGGCCAACAAGGGTCCTTCCTATGGCATGAGCCGCGAAGTGCAGTCCAAAATCGAGAAGAAGTATGACGAGGAGCTGGAGGAGCGGCTGGTGGAGTGGATCATAGTGCAGTGTGGCCCTGATGTGGGCCGCCCAGACCGTGGGCGCTTGGGCTTCCAGGTCTGGCTGAAGAATGGCGTGATTCTGAGCAAGCTGGTGAACAGCCTGTACCCTGATGGCTCCAAGCCGGTGAAGGTGCCCGAGAACCCACCCTCCATGGTCTTCAAGCAGATGGAGCAGGTGGCTCAGTTCCTGAAGGCGGCTGAGGACTATGGGGTCATCAAGACTGACATGTTCCAGACTGTTGACCTCTTTGAAGGCAAAGACATGGCAGCAGTGCAGAGGACCCTGATGGCTTTGGGCAGCTTGGCAGTGACCAAGAATGATGGGCACTACCGTGGAGATCCCAACTGGTTTATGAAGAAAGCGCAGGAGCATAAGAGGGAATTCACAGAGAGCCAGCTGCAGGAGGGAAAGCATGTCATTGGCCTTCAGATGGGCAGCAACAGAGGGGCCTCCCAGGCCGGCATGACAGGCTACGGACGACCTCGGCAGATCATCAGTTAGAGCGGAGAGGGCTAGCCCTGAGCCCGGCCCTCCCCCAGCTCCTTGGCTGCAGCCATCCCGCTTAGCCTGCCTCACCCACACCCGTGTGGTACCTTCAGCCCTGGCCAAGCTTTGAGGCTCTGTCACTGAGCAATGGTAACTGCACCTGGGCAGCTCCTCCCTGTGCCCCCAGCCTCAGCCCAACTTCTTACCCGAAAGCATCACTGCCTTGGGCCCCTCCCTCCCGGCTGCCCCCATCACCTCTACTGTCTCCTCCCTGGGCTAAGCAGGGGAGAAGCGGGCTGGGGGTAGCCTGGATGTGGGCCAAGTCCACTGTCCTCCTTGGCGGCAAAAGCCCATTGAAGAAGAACCAGCCCAGCCTGCCCCCTATCTTGTCCTGGAATATTTTTGGGGTTGGAACTCAAAAAAAAAAAAGGGGGGGCCCGCGCGTTTATTGTGCCTTCTTCAGACCCCGGGAATTAATTCCCGACCGGATACCTTGGCAGCTATATTGAATCTTGCAACCGTTTAACTTACCATTTTTTGCCTCAGCCCGGTGTTTCTGGCTTGTTTGGGAAGCCGGTTGGTCCTCTTTGGTGTTCCGTTCCACGCGAAAAGGTTTAGACAGACTTCCGGAACACTTCCGGGTTCCCCAGACACCAGCTTCTTTGTTAGGGTCCCCACCGGTCATTGTCGCCCGGATCGCTTGGTCCACCGGCGCGGTTAACGTTTTTTCAGCCGGGCGATGTCA
modifications: Incyte ID No 5425777CA2
B1: in series [1] (normal-donor adipocytes treated with PPARγ agonist (1 μM rosiglitazone, 0.2 mM IBMX, 100 nM insulin), 1 day, relative to untreated time-matched controls, negative = downregulation), the “differential expression, Normal 1 d” value was −2.16 log base 2. In addition, in series [1] (normal-donor adipocytes treated with PPARγ agonist (1 μM rosiglitazone, 0.2 mM IBMX, 100 nM insulin), 2 days, relative to untreated time-matched controls, negative = downregulation), the “differential expression, Normal 2 d” value is recorded as −3.01 log base 2. Further, the “differential expression, Normal 8 d” value in series [1] (normal-donor adipocytes treated with PPARγ agonist (1 μM rosiglitazone, 0.2 mM IBMX, 100 nM insulin), 8 days, relative to untreated time-matched controls, negative = downregulation) is −0.23 log base 2. For the same molecule, the “differential expression, Normal mean” value in series [1] (normal-donor adipocytes treated with PPARγ agonist, averaged over 1, 2, 8 and 15 days) is listed as −1.80 log base 2. Also, in series [2] (obese-donor adipocytes treated with PPARγ agonist (1 μM rosiglitazone, 0.2 mM IBMX, 100 nM insulin), 1 day, relative to untreated time-matched controls, negative = downregulation), the “differential expression, Obese 1 d” value is listed as −2.55 log base 2. The “differential expression, Obese 2 d” value in series [2] (obese-donor adipocytes treated with PPARγ agonist (1 μM rosiglitazone, 0.2 mM IBMX, 100 nM insulin), 2 days, relative to untreated time-matched controls, negative = downregulation) was −3.20 log base 2. The “differential expression, Obese 8 d” value in series [2] (obese-donor adipocytes treated with PPARγ agonist (1 μM rosiglitazone, 0.2 mM IBMX, 100 nM insulin), 8 days, relative to untreated time-matched controls, negative = downregulation) is listed as −2.02 log base 2. Also, the “differential expression, Obese mean” value in series [2] (obese-donor adipocytes treated with PPARγ agonist, averaged over 1, 2, 8 and 15 days) was −2.59 log base 2.
